Data as given in paper PMC3331935 (Developmental Cell, 2012).

What was measured:
Assay in all cases: alkaline phosphatase fusion protein binding assay
[1] = biological target: Notch1, transfected into HEK293 cells and immunoprecipitated on protein G beads (UniProt Q07008 19-2531)
[2] = biological target: Notch2 (UniProt O35516 26-2473)
[3] = biological target: Notch3 (UniProt Q61982 40-2318)
[4] = biological target: Notch4 (UniProt P31695 21-1964)
Chain of Notch4 (P31695 21-1964): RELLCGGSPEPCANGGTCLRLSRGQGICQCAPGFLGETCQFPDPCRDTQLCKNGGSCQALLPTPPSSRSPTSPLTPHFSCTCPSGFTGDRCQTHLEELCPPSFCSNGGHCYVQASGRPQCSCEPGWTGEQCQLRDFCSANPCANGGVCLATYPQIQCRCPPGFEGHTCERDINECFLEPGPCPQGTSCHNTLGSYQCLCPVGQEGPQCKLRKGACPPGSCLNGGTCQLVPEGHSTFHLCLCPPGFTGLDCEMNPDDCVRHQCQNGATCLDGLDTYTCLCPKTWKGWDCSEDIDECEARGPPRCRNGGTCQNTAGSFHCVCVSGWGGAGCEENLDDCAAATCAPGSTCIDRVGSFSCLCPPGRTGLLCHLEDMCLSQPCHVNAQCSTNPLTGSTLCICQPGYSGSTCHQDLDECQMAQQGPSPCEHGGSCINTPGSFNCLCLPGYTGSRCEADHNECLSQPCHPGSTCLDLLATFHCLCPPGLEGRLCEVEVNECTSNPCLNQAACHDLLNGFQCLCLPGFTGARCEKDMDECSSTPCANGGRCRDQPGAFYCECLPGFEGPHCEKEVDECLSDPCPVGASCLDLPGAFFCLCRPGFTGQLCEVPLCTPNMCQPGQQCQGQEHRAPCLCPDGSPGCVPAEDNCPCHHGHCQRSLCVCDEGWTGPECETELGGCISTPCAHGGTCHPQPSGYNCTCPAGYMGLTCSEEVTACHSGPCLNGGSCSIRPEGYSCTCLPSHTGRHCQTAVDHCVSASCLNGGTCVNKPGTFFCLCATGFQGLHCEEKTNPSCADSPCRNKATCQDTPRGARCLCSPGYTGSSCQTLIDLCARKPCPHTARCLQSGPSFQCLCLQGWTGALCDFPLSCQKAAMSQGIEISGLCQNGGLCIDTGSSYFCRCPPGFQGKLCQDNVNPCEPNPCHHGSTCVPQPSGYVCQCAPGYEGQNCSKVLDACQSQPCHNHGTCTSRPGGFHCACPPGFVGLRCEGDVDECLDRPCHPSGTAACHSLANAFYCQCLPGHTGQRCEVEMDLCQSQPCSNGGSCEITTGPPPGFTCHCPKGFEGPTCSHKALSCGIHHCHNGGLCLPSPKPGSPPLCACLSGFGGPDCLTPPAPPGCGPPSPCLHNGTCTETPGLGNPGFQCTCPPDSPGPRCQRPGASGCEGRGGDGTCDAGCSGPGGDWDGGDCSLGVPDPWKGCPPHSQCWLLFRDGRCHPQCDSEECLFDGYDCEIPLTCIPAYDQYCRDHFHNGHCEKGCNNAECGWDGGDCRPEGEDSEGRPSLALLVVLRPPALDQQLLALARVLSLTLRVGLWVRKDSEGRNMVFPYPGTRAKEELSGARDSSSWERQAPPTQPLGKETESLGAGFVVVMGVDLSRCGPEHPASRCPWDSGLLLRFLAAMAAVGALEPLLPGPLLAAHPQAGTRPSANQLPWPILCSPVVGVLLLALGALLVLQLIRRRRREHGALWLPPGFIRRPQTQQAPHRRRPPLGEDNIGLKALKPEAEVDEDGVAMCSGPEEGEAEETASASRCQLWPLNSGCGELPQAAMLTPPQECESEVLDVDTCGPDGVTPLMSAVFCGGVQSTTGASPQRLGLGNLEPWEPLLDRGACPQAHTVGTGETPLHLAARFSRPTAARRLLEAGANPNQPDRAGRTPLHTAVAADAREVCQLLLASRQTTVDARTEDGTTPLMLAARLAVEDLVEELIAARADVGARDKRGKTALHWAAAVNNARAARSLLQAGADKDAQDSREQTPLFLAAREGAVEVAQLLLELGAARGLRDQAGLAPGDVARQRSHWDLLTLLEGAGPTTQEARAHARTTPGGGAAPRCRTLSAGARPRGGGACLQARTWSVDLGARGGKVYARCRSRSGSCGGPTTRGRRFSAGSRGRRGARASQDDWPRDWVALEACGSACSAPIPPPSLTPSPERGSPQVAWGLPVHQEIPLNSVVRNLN

Chain of Notch2 (O35516 26-2473): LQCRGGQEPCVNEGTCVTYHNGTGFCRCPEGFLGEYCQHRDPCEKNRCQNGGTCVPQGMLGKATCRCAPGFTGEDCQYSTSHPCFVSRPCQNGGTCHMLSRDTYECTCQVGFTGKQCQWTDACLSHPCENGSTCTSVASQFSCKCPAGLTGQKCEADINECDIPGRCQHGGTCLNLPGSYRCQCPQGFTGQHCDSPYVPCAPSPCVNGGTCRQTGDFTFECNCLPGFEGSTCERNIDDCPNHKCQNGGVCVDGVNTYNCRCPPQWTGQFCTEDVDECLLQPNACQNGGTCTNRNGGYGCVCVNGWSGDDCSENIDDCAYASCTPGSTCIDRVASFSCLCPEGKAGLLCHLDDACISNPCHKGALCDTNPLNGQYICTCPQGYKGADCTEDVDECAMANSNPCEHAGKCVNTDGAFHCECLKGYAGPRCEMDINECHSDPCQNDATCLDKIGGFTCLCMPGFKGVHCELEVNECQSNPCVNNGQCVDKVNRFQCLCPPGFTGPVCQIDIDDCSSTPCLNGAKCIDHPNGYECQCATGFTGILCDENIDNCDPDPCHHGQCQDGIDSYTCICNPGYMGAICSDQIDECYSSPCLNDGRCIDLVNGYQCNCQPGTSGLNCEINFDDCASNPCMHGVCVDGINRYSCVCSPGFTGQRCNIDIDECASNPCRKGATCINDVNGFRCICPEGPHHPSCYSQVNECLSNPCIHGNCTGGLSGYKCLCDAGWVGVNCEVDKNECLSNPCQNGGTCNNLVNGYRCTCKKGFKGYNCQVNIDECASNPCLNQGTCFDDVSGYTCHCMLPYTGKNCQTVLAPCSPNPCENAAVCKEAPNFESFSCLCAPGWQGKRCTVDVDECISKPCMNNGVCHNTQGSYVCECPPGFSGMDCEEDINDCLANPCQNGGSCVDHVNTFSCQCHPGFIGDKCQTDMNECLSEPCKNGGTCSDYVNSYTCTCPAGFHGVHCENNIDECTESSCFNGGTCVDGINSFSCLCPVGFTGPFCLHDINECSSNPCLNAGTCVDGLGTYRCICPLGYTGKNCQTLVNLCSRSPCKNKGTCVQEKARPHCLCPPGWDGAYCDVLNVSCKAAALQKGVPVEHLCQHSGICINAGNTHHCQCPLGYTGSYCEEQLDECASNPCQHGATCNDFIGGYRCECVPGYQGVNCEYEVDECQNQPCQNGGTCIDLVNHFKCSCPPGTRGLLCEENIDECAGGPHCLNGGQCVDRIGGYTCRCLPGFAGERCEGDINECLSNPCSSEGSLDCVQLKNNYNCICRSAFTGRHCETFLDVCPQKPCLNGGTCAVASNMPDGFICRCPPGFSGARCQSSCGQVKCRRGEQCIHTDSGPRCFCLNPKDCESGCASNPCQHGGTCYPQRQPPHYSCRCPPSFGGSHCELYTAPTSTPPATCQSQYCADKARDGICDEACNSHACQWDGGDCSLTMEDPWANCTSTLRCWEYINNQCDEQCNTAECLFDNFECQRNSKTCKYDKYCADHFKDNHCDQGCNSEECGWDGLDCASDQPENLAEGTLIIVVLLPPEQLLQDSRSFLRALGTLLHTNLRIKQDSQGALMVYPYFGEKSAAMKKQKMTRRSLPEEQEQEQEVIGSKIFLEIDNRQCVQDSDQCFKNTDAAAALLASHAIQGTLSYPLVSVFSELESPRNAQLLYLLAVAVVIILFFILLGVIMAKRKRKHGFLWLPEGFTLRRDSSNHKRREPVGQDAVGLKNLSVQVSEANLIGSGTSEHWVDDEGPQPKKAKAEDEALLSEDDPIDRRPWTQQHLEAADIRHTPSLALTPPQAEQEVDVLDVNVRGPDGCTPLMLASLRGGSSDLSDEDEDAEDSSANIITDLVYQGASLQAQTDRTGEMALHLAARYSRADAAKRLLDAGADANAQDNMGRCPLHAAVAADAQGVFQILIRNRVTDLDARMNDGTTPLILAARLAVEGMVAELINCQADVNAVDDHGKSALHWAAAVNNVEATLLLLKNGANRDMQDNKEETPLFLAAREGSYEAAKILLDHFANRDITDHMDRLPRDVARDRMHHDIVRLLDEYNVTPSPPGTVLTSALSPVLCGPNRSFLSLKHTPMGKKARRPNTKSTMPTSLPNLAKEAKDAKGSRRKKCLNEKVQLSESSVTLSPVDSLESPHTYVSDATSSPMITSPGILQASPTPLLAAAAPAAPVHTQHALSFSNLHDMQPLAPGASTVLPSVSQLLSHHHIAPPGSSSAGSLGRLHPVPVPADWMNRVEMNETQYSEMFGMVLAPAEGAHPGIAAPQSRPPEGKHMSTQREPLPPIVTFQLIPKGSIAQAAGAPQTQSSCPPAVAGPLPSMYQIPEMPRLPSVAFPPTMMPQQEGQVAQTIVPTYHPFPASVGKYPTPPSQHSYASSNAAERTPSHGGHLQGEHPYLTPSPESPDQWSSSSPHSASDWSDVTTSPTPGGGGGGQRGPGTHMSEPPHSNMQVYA

Kd [1]: 3.3 nM | Kd [2]: 8.8 nM | Kd [3]: 3.3 nM | Kd [4]: 6.3 nM
B1: alkaline phosphatase tagged Botch (Botch-N-AP) (natural protein, UniProt Q8R3J5 1-223, looked up)
chain: MKQESASQSTPPPSLSPAPSSAQPSWGDGDPQALWIFGYGSLVWKPDFAYSDSRVGFVRGYSRRFWQGDTFHRGSDKMPGRVVTLLEDREGCTWGVAYQVRGEQVNEALKYLNVREAVLGGYDTKEVTFYPQDTPDQPLTALAYVATPQNPGYLGPAPEEVIATQILACRGFSGHNLEYLLRLADFMQLCGPQAQDEHLEAIVDAVGTLLPCSYLPEQPLALT
